Legend:
human PD-1 = human PD-1 (human, UniProt Q15116 25-288); assay: cell-based or functional assay
human PD-1-hFc = molecular target: T1, human PD-1-hFc (human, UniProt Q15116 25-170, biotin-labelled with EZ-Link Sulfo-NHS-Biotin in the second SPR method); assay: SPR Biacore T200; biotinylated PD-1-hFc on SA chip, antibody as analyte
T1 construct: extracellular domain; also called PD-1-hFc antigen; PD-1-hFc fusion protein; not shown: Fc region of human IgG1
Protocol: The second determination method was as follows: PD-1-hFc in Example 1 was biotin-labelled using EZ-Link™ Sulfo-NHS-Biotin (Thermo Fisher Scientific), and the specific operation was carried out according to the instructions provided by the manufacturer. After labeling, the excess biotin labeling reagent was removed by dialysis; the aforementioned biotinylated PD-1-hFc fusion protein was immobilized on a chip using Sensor chip SA (GE healthcare). FC3 (Flow cell 3) was a reference channel, and FC4 (Flow cell 4) was a sample channel.

[1] = molecular target: T2, monovalent human PD-1 (purchased from Sino Biological Inc.) (human, UniProt Q15116 25-167); assay: SPR Biacore T200; antibody captured on Protein A/G, monovalent human PD-1 as analyte
T2 construct: Bought reagent
T2 sequence (Q15116 25-167 limits assumed): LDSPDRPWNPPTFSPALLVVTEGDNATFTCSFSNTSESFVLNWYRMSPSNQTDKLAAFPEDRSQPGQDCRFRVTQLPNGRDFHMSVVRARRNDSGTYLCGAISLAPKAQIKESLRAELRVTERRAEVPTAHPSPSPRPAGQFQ
From the text: The first method was as follows: A CM5 sensor chip (GE healthcare) was activated by the Amine Coupling Kit (GE healthcare) and the Protein A/G fusion protein (Thermo Pierce) was immobilized on the chip with an amount of 2000 RU. FC3 (Flow cell 3) was a reference channel, and FC4 (Flow cell 4) was a sample channel.

CD28-hFc = molecular target: T3, CD28-hFc (UniProt P10747 19-152); assay: ELISA, plate coated with CD28-hFc at 2 ug/ml, detection with HRP goat anti-human Fab, OD450
T3 construct: Bought reagent; construct not described; not shown: hFc of a bought product
Protocol: (§1) The protein molecules such as CD28, CTLA-4, and ICOS belong to the same family as PD-1, and the sequences have homology. […] Each well was added with 200 μl of coating solution containing 1% BSA, and blocked at room temperature for 4 hours, then patted dry, and stored in a refrigerator at -20° C. until use. […] 100 μl of HRP-labeled goat anti-human Fab antibody (purchased from Sigma) diluted 1:5000 with PBST was added and incubated at room temperature for 1 hour; washed 3 times with PBST and patted dry. 100 μl of chromogenic solution (ELISA chromogenic solution A and chromogenic solution B were mixed in a volume ratio of 1:1 before use) was added to each well, then 100 μl of 2M H₂SO₄ stop solution was added to each well to stop the reaction. The OD value of each well was immediately measured at a wavelength of 450 nm using a microplate reader (Molecular Device).

ICOS-hFc = molecular target: T4, ICOS-hFc (UniProt Q9Y6W8 21-141); assay: ELISA, plate coated with ICOS-hFc at 2 ug/ml, detection with HRP goat anti-human Fab, OD450
T4 construct: Bought reagent; construct not described; not shown: hFc of a bought product
T4 sequence (looked up): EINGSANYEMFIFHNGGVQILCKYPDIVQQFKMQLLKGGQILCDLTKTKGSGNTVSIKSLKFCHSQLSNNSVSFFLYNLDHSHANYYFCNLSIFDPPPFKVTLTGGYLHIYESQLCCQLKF
Protocol: as §1

T1 sequence (Q15116 25-170): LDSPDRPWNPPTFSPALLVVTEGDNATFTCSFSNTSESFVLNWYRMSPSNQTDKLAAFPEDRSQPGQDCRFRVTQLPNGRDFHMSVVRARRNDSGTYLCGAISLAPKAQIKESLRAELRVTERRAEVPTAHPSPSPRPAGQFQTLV
Chain of human PD-1 (Q15116 25-288): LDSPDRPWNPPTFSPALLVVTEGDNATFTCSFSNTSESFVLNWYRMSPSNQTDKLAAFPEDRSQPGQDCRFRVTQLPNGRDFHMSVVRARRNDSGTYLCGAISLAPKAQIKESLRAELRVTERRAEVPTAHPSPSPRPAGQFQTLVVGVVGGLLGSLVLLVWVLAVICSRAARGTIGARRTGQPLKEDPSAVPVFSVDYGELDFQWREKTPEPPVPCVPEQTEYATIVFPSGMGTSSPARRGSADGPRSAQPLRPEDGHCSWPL

Binder | Cell proliferation (FIG. 3), MLR EC50 (human PD-1) | IFN-γ secretion (FIG. 2), MLR EC50 (human PD-1) | IL-2 secretion (FIG. 1), MLR EC50 (human PD-1) | Kd (human PD-1-hFc) | koff (human PD-1-hFc) | kon (human PD-1-hFc) | Kd [1] | koff [1] | kon [1] | binding result (CD28-hFc) | binding result (ICOS-hFc)
mAb1-15-Humanized (antibody, human IgG4 S228P, kappa, V domains shown, Human IgG4/Kappa, expressed in HEK293, purified on Protein A; also called humanized antibody No. 1-15) VH: EVQLVESGGGLVQPGGSLRLSCAASGFTFSSYDMSWVRQAPGKRLEWVATISGGGRYTYYPDSVKGRFTISRDNAKNSLYLQMNSLRAEDTAVYYCANRYDVDWFAYWGQGTLVTVSS VL: EIVLTQSPATLSLSPGERATLSCRASQSISNNLHWYQQKPGQAPRLLIKYASQSISGIPARFSGSGSGTDFTLTISSLEPEDFAVYFCQQSNSWPLTFGQGTKVEIKR | 17.2 ng/mL | 55.7 ng/mL | 16.5 ng/mL | 0.0408 nM | 3.12e-05 s⁻¹ | 764000 M⁻¹ s⁻¹ | 4.28 nM | 0.000117 s⁻¹ | 27300 M⁻¹ s⁻¹ |  | 
mAb1-15-Chimeric (antibody, human IgG4 S228P, kappa, V domains shown, Murine variable regions spliced to human IgG4 and Kappa constant regions; expressed in HEK293; also called chimeric antibody of murine antibody No. 1-15) VH: EVNLVESGGGLVKPGGSLKLSCAASGFTFSSYDMSWVRQTPEKRLEWVATISGGGRYTYYPDSVKGRFTISRDNAKNNLYLQMSSLRSEDTALYYCANRYDVDWFAYWGQGTLVTVSA VL: DIVLTQSPATLSVTPGDSVSLSCRASQSISNNLHWYQQKSHESPRLLIKYASQSISGIPSRFSGSGSGTDFTLSINSVETEDFGMYFCQQSNSWPLTFGAGTKLELNR | 14.6 ng/mL | 28.4 ng/mL | 23.6 ng/mL |  |  |  | 2.34 nM | 0.000148 s⁻¹ | 62900 M⁻¹ s⁻¹ |  | 
mAb1-25-Humanized (antibody, human IgG4 S228P, kappa, V domains shown, Human IgG4/Kappa, expressed in HEK293E, purified on Protein A; also called humanized antibody No. 1-25) VH: EVKLVESGGGLVQPGGSLRLSCAASGFAFSSYDMSWVRQAPGKRLEWVATISGGGRYTYYPDTVKGRFTISRDNAKNSHYLQMNSLRAEDTAVYFCASPYGGYFDVWGQGTLVTVSS VL: EIVLTQSPATLSLSPGERATLSCRASQSISNFLHWYQQKPGQAPRLLIKYASQSISGIPARFSGSGSGTDFTLTISSLEPEDFAVYFCQQSNSWPHTFGQGTKVEIKR |  |  |  |  |  |  |  |  |  | no binding (tested: log 3.6 (about 4000 ng/ml)) | no binding (tested: log 3.6 (about 4000 ng/ml))
mAb1-25-Chimeric (antibody, human IgG4 S228P, kappa, V domains shown, Murine variable regions spliced to human IgG4 and Kappa constant regions; expressed in HEK293; also called chimeric antibody of murine antibody No. 1-25) VH: EVKLVESGGDLVKPGGSLKLSCVASGFAFSSYDMSWVRQTPEKRLEWVATISGGGRYTYYPDTVKGRFTISRDNARNTHYLQMSSLRSEDTALYFCASPYGGYFDVWGAGTTVTVSS VL: DIVLTQSPATLSVTPGARVSLSCRASQSISNFLHWYQQKSHESPRLLIKYASQSISGIPSRFSGSGSGTDFTLSISSVETEDFGMYFCQQSNSWPHTFGAGTKLELKR | 6.69 ng/mL | 25.4 ng/mL | 9.95 ng/mL |  |  |  | 0.231 nM | 4.14e-05 s⁻¹ | 179000 M⁻¹ s⁻¹ |  | 

Source: patent US20200377597A1 (SUNSHINE GUOJIAN PHARMACEUTICAL SHANGHAI CO LT, published 2020)
